# Laboratory results reported in IntAct's records for PubMed 9024666.
# B1: Apoptosis regulator ced-9 (Caenorhabditis elegans), P41958 (parent)
# chain: MTRCTADNSLTNPAYRRRTMATGEMKEFLGIKGTEPTDFGINSDAQDLPSPSRQASTRRMSIGESIDGKINDWEEPRLDIEGFVVDYFTHRIRQNGMEWFGAPGLPCGVQPEHEMMRVMGTIFEKKHAENFETFCEQLLAVPRISFSLYQDVVRTVGNAQTDQCPMSYGRLIGLISFGGFVAAKMMESVELQGQVRNLFVYTSLFIKTRIRNNWKEHNRSWDDFMTLGKQMKEDYERAEAEKVGRRKQNRRWSMIGAGVTAGAIGIVGVVVCGRMMFSLK
# partner: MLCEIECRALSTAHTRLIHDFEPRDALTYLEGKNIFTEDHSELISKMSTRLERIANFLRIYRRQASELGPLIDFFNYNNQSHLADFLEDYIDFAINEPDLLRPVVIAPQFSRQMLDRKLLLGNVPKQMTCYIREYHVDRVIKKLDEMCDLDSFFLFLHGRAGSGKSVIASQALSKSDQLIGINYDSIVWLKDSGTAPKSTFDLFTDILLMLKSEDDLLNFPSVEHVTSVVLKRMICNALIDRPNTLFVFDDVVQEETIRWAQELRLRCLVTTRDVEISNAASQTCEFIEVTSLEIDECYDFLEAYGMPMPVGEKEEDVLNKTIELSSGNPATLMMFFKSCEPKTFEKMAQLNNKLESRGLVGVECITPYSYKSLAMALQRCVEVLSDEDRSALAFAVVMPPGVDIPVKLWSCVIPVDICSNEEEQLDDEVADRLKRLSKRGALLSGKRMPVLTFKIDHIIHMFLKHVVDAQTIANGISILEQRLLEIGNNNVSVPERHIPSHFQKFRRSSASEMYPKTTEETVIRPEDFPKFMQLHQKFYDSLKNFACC
# Variants of: B1
# Conditions: with ced4_caeel ced-4, P30429
row,Variant,effect of a mutation on the interaction
1,Y149N,decreasing interaction
